± gives the uncertainty stated by the source.
Test: amyloid nucleation score (Sup35N fusion, yeast selection) (log enrichment); library NNK3; higher = more nucleation; inactive = no reads after selection
Method in brief: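 On medium lacking adenine and uracil, psi-negative yeast expressing peptides of 20 random codons fused to Sup35N were grown 7 days at 30°C after a 24-hour induction with 100 μM copper sulfate. Illumina sequencing of input and output plasmid inserts gave the reads, and sequences under 100 input reads were excluded. The nucleation score is the DiMSum log enrichment of output over input reads, centred on the mode score of non-aggregating sequences.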

Substance | amyloid nucleation score
MDGGFECGNEGICWSTCVLG | inactive
TFEWCMPFFTNFSLMFFFYW | inactive
LFVIINPQVTWLLFRMFESH | inactive
KEQDTQSIAQCNKTHRA | inactive
FFDTTYLLNSGMNVVLDAYF | 1.76 ± 0.097
KGSLGVPWLLVNSGLINGC | inactive
LDNTLDN | inactive
TMVFILQMLV | 1.47 ± 0.097
NRCKLNVAGHLCANRTRRFR | inactive
LKPELIGMCGEGGLIAFRSQ | inactive
TTCAVCRCIRGAMFNGSVSK | inactive
YIIICLGMWCYSNVGSKTGT | inactive
SHVWPLLMYHGGIVWSKS | inactive
NLTLVVHYISRQSISEHYLR | inactive
SETHLLQGDISVVMVLSAN | inactive
LVCNRWPNCANCRCRP | inactive
SARYDFSYEYGRIKYRELDR | 1.1 ± 0.15
TSVNVWFPFLGVREGFGCSP | 1.37 ± 0.15
GCPIFAIFFDLTLCDNARYM | 2.47 ± 0.08
GLFYMMLLTRMGRYRGERNG | 1.18 ± 0.1
CYYRCDCLCMTWWGHRVIVV | inactive
QSLRRQYLNYIRSIFESMEN | inactive
SNILAA | inactive

Substance | amyloid nucleation score
WNGILHMMVGGLKTLIGMDY | inactive
VRYWTTPVL | inactive
RVGISTYLVVSEE | inactive
DIVLFLG | inactive
MFLFFHVFKDFQIHRDLQDW | 0.08 ± 0.59
PSHWFISL | inactive
ESSNNPFFDQAYIYIKFY | -0.42 ± 0.9
YPLCEL | 0.193 ± 0.19
SQLQVISKIENSRKVIQRSS | inactive
LQYHRLGQLPRQNRDTVLLL | inactive
KMDLTGWTI | inactive
SESQYRRWYTLAFVYMRHLN | inactive
QSSMLHL | inactive
PVKRVIYSRGYVQKCPLCP | inactive
CIKIIIFNVERLVALIIVSL | inactive
RDVTC | inactive
YYFTVLRLVVNMAIVSPCPQ | inactive
CNFLGSRLGYFGNYIFI | inactive
GAQAKC | inactive
IRLWQEHWNWRGRSLFFRWC | inactive
VGRAEWLC | inactive
SNSRNSTGVVQMTRIPKMMR | inactive
WCLNGSMYLLAVSSG | inactive

Substance | amyloid nucleation score
CAKMHTCVYSFCTMEWSLTR | inactive
DSCKIYGG | inactive
NESFGTARSAGDGMKNVPGP | inactive
SFNVTVRGLSSSN | 0.027 ± 0.47
RFNGDQMYFNLSFKISELFP | 1.09 ± 0.079
PSSIKRVL | -0.33 ± 0.8
MKDASFQP | inactive
ALCRASEVIWWARVSGGCVL | inactive
WVDFFMFWGFAMNENKWFVH | inactive
FIGFSAWWNGMDNVRVLASS | -0.269 ± 0.73
LFTKRSYCCSCVVSGSEWAY | 0.852 ± 0.21
NYPIA | inactive
RLSYRVNCLRCPNFWNRHMS | 1.93 ± 0.11
NFCLVRGVNLANPFSNDCKS | inactive
RIDRFCSFFNRSPSDCLLLS | inactive
CRCFLPWGWLV | inactive
SNITAVYAVVTNIRWLYVRT | inactive
HIFHQIKANDHAIFLGNVSG | inactive
SIESMCPVYILVVAPEMCR | inactive
WYWSLA | -0.174 ± 0.59
TAKMSRVYCCCFSLFDVSLK | inactive
WISSSGIPFDRYLLWYNSVG | inactive
SVTLLFLKLYIR | inactive

Substance | amyloid nucleation score
YRMNDGNDGICMVWLRNSAY | inactive
TNTFYDHTNFMIVGLVPVRY | inactive
VHFKCLRRCVGVIDRCINRH | inactive
LFDIVSQITLWQGPTHAFFK | inactive
YFFIPLMF | 0.725 ± 0.14
RILTDGIIVLFL | inactive
IIVTKGAMR | -0.87 ± 1.7
CIWHLHLLFLEGVYV | inactive
KKCHGMMCNTITRTINILC | inactive
IRMQNLRFGSLKLAGFIMCD | inactive
ASVPAN | inactive
GYWWELSSKVNVCAMMHRPW | inactive
VMLRMDARQWHSLATVTVVP | inactive
RGKCSNIETRIVRCWGGQVV | inactive
FLANGSDWIFLWFRIHVDHF | inactive
ASDSDTCCGFVRGAVYWRLT | -0.117 ± 0.84
RFHDNFAAK | inactive
GRHVLGCVDITTGARSLPRM | inactive
RNTLARKFVIRFTIFNAWSN | 1.28 ± 0.11
RIVGIYKGLLAD | inactive
IRLPIGQGLC | inactive
MYQSLAYFASDLRIHWHMRK | 0.729 ± 0.14
LLVCDREVAFAVACSFPCKR | inactive

Substance | amyloid nucleation score
SCNNDPFTNDNASLVRLGRE | inactive
GLHVTCGRDYHGWMGDCSMA | inactive
RFFSFFIT | 2.44 ± 0.055
QKVYNFMWYLFQYIELVYMN | inactive
LVLRFTSIDFKLFRRHST | inactive
GSTSRIPGVLVSKRRANMQH | inactive
QSHIVSRGLAEENTW | inactive
VRREYDWMPHHWMGTGLCKC | inactive
SIGWSLCENRRQPGSRWSLP | inactive
TWLIGHGAVIVRLYNFYMAI | inactive
WPLTCCDFSPSDSAIGRM | inactive
RVAHFY | inactive
ARSDGLF | inactive
EFVEAYFSNGLSRLPLTHGM | inactive
NRMNKSEDGTSKCFESDRWG | inactive
EITLYEQGNNRSLVGPERKS | inactive
RNLYSIRANMWLNRQLRKYS | inactive
TLSCDRKNCVVHCFLIQRFL | inactive
TFSASAVFTYDKGAPPLLEG | 0.999 ± 0.17
ITIGTTIGDLSYR | inactive
MGPWCRKWIICLTRVSYRVG | inactive
IRLDSYLDNMSMLLCKYWFC | inactive
RSVSNVFRLCLDAWGKVRRH | inactive

Substance | amyloid nucleation score
FYLGEYETLFVKDIRGDSVP | -0.97 ± 1.1
INVVIRSSHFECTGC | 1.15 ± 0.11
DSFLSGSEELSVSDCCCIAF | inactive
WCASMRNVCYFVVFMESKLS | 0.294 ± 0.44
GLVLISKC | inactive
RNSKLSCNVDTKSCFVECMN | inactive
YMIATGTVGWNRLTLKCVVV | inactive
SSSVCRSLSPLILSHKRYYS | inactive
AEVPEFTLYVSFYSWVYFRL | inactive
YSPSLGSDQACSQLCSLSTF | inactive
VDQHGFATKGPVLSKVIGHS | inactive
VMIFSCYSAYYPNLISHSRW | inactive
LGDAFWFEIH | inactive
NIVERGSDLRGLCKTFNDIA | inactive
AYSYAYGHCRYGSEVS | inactive
SISAALWAFL | inactive
DYHLQLKMLRPW | inactive
AAVHWSTIYYSLGMVKDEGG | inactive
SDWFGCVVVTLCLVNHQALS | inactive
STTVLQQSLLKNKNLSWDAS | inactive
TKSAYRWSRKVRNEFQGSMG | inactive
EIICLSLLCS | 2.18 ± 0.053
CEYLGPVYIM | inactive

Substance | amyloid nucleation score
KFFQTSLRTAIRLWKSAISC | inactive
PRTQSYECVYGYSLKRNWLA | inactive
LFYCSNCGKGIIQLRVGLYP | inactive
SVERFIMPC | inactive
SSDSKGFHGFGWFFWISLVT | inactive
YVHFLFQTHIRCMVRFSLCW | inactive
FMMFIL | 1.42 ± 0.1
NMTTGYGAMGFRVVEAWFGC | 1.13 ± 0.11
ALFSKYIYITFNYYFMQKWL | 2.54 ± 0.054
MILLLSGGCVTESFWG | inactive
EVWRVSDSYSVDEIFVLLNL | inactive
LGFHTYRNLGKMHI | inactive
CASCEVFMLR | inactive
ASYLCVFCDRAFQCGPYRYI | 2.22 ± 0.092
GAQKYSFPRVSWPILGRIDY | inactive
LCCKIHSRTKMRRGSC | inactive
RVVCGNTGNVAIKKGLINMC | inactive
LLTHRFVAGFHRKAHSCCDS | inactive
WILSYLDNCARSRQ | inactive
LVRYLENIRLRS | inactive

From the supplement of paper PMC12042874
